Data published in publication PMC4837182, “Plasmodium falciparum Hsp70-z, an Hsp110 homologue, exhibits independent chaperone activity and interacts with Hsp70-1 in a nucleotide-dependent fashion” (Cell Stress & Chaperones, 2016).

Tests used:
[1] = molecular target: T1, recombinant Plasmodium falciparum Hsp70-z (PfHsp70-z) (Plasmodium falciparum); test: SPR; ProteOn XPR36, ligand amine-coupled to GLC chip, analyte 125-2000 nM at 50 μl/min, PBS-Tween with 20 mM EDTA pH 7.4, 25 °C, Langmuir fit; with 5 mM ADP; conditions: both partners purified
T1 construct: also called PfHsp110c; PfHsp110; not shown: His6, N-terminal, kept

[2] = molecular target: T1, recombinant Plasmodium falciparum …; test: SPR; ProteOn XPR36, ligand amine-coupled to GLC chip, analyte 125-2000 nM at 50 μl/min, PBS-Tween with 20 mM EDTA pH 7.4, 25 °C, Langmuir fit; with 5 mM ATP; conditions: both partners purified

B1: nucleotide binding domain of PfHsp70-1 (PfHsp70-1NBD) (domain or fragment)
chain: not shown
modifications: assayed without nucleotide or with ADP/ATP; N-terminal His6 tag from pQE30 left out. Locus PF3D7_0818900 (cytosolic PfHsp70-1, UniProt Q8IB24) is from memory, not given; NBD limits are
With B1 the Kd [1] was 98.6 nM, the koff [1] was 0.00026 s⁻¹ and the kon [1] was 2630 M⁻¹ s⁻¹. The Kd [2] was 2.12 nM, the koff [2] was 9.43e-06 s⁻¹ and the kon [2] was 4460 M⁻¹ s⁻¹.
